In patent US20220380739A1 (Boehringer Ingelheim, published 2022):
Where two headings read alike, the source gives them in different places.

Assays:
6H-GSG-VDVAD-BIWA4 [1] = assay: cell-based or functional assay
6H-GSG-VDVAD-BIWA4 [2] = assay: cell-based or functional assay; remark: listed apart in the source

6H-GSG-VDVAD-BIWA4, sequence (scFv, as listed by the source): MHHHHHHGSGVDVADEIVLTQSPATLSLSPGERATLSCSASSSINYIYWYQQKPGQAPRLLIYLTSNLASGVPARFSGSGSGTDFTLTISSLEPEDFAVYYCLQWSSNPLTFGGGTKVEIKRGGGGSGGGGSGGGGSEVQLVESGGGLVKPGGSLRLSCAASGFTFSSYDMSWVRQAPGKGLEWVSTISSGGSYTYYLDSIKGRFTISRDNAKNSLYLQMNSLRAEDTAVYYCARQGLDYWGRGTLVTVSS

Binder	KM (6H-GSG-VDVAD-BIWA4 [1])	KM (6H-GSG-VDVAD-BIWA4 [2])
T7AC_6H_mS9ProE (enzyme) MLEDPERNKERKEAELQAQTAEQHHHHHHGKNHAGSPGCEESAAGKEKLPKMRLPTRSDMICGYACLKGTAAMRNTKRGSWYIEALAQVFSERACDMHVADMLVKVNALIKDREGYAPGTEFHRCKVMSEYCSTLCRHLYLFPGHPPTGSGPVCLQVKPCTPEFYQTHFQLAYRLQSRPRGLALVLSNVHFTDEKELEFRSGGDVDHSTLVTLFKLLGYDVHVLCDQTAQEMQEKLQNFAQLPAHRGTDSCIVALLSHGVEGAIYGVDGKLLQLQEVFQLFDNANCPSLQNKPKMFFIQACRGEETERGVDQQD	0.00016	0.00016
T7AC_6H_mS9ProD (enzyme) MLEDPERNKERKEAELQAQTAEQHHHHHHGKNHAGSPGCEESAAGKEKLPKMRLPTRSDMICGYACLKGTAAMRNTKRGSWYIEALAQVFSERACDMHVADMLVKVNALIKDREGYAPGTEFHRCKVMSEYCSTLCRHLYLFPGHPPTGSGPVCLQVKPCTPEFYQTHFQLAYRLQSRPRGLALVLSNVHFTDEKELEFRSGGDVDHSTLVTLFKLLGYDVHVLCDQTAQEMQEKLQNFAQLPAHRGTDSCIVALLSHGVEGAIYGVDGKLLQLQEVFQLFDNANCPSLQNKPKMFFIQACRGEETDRGVDQQD	0.00023	0.00023
